Patent US20150086580A1

Experiments:
[1] = molecular target: H77c core-E1ΔHVR1E2 HCVpp (HCV E1E2 without HVR1) (Hepatitis C virus genotype 1a, isolate H77C) (UniProt P27958); assay: binding affinity to HCVpp (method not given)
[2] = molecular target: H77c core-E1E2 HCVpp (HCV E1E2 with HVR1) (Hepatitis C virus genotype 1a, isolate H77C); assay: binding affinity to HCVpp (method not given)

CBH-4D (antibody)
Kd [1]: 480 pM
Kd [2]: 840 pM

CBH-4G (antibody)
Kd [1]: 5290 pM
Kd [2]: 5430 pM

CBH-5 (antibody)
Kd [1]: 560 pM
Kd [2]: 4000 pM

CBH-7 (antibody)
Kd [1]: 80 pM
Kd [2]: 240 pM

CBH-23 (antibody)
Kd [1]: 90 pM
Kd [2]: 170 pM
